In PMC7943553, “Naturally acquired blocking human monoclonal antibodies to Plasmodiumvivax reticulocyte binding protein 2b” (Nature Communications, 2021):

How the values were obtained:
Conditions in all cases: both partners purified
[1] = target: T1, P. vivax Reticulocyte Binding Protein 2b, residues 161–1454 (P. vivax strain Salvador I, UniProt A5K736, DyLight 488 (NHS ester) in the FRET assay; biotin (BirA site) in the competition ELISA between human mAbs); experiment: ELISA; avidity ELISA: plates coated with 50 ng PvRBP2b161–1454; human mAbs at 0.2 µg/mL; then PBS, 0.5, 1 or 2 M NH4SCN for 20 min; binding relative to no NH4SCN
T1 construct: PvRBP2b, P. vivax strain Salvador I, PlasmoDB PVX_094255 (total length 2806 amino acids), residues 161-1454; also called PvRBP2b_(161–1454); PvRBP2b; source: recombinant; expressed and purified in a similar manner as PvRBP2b161–470 (E. coli SHuffle T7; HisTrap, Q-Sepharose, size exclusion) or as previously described

[2] = target: T1, P. vivax Reticulocyte Binding Protein …; experiment: ELISA; plates coated with 65 nM recombinant protein in PBS at 4 °C overnight; human mAbs at 1 μg/mL, 1 h room temperature; HRP anti-human secondary; specificity panel and PvRBP2b fragments
[3] = target: T1, P. vivax Reticulocyte Binding Protein …; experiment: flow cytometry on cells; PvRBP2b161–1454 at 4 μg/mL with human mAbs at 5-fold molar excess and reticulocytes, 1 h room temperature; inhibition relative to no mAb
[4] = target: T1, P. vivax Reticulocyte Binding Protein …; experiment: FRET or BRET; PvRBP2b161–1454-DL488, TfR1-DL594 and Tf at 1:1:1 molar ratio, 5-fold excess of human mAbs; 50 mM Tris-HCl pH 6.8, 150 mM NaCl, 0.01% BSA
[5] = target: T2, human Transferrin receptor 1 – Transferrin (human, UniProt P02786 121-760; P02787 20-698, DyLight 594 (NHS ester) in the FRET assay); experiment: as above
T2 construct: soluble ectodomain of human transferrin receptor 1, residues 121-760; follows the GP67 leader peptide, a 6xHis-tag and a factor Xa site; transferrin purified from human serum (apo-transferrin), loaded with iron to holo-transferrin; TfR1 and Tf were mixed with PvRBP2b in equal amounts in the assays; also called TfR1–Tf; TfR1 and Tf; copies: 2 + 2
T2 sequence (P02786 121-760, chain 1 of 2): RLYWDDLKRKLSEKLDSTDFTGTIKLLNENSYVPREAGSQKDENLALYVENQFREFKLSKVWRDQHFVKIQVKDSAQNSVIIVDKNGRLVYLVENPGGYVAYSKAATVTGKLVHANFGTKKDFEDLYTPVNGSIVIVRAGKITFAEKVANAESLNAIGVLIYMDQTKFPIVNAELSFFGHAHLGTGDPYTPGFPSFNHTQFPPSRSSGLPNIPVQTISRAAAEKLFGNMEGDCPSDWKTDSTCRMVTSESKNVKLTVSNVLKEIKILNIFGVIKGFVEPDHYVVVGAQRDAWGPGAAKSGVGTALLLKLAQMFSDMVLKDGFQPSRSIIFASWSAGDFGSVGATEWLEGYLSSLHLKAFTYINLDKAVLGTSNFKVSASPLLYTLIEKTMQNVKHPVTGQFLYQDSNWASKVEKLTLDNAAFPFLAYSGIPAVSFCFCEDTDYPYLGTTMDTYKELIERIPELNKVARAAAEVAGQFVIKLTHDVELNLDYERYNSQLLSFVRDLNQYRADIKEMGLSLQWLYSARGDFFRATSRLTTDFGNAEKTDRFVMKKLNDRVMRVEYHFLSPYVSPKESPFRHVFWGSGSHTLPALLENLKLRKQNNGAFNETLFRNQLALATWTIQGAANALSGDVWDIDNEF
T2 sequence (P02787 20-698, chain 2 of 2): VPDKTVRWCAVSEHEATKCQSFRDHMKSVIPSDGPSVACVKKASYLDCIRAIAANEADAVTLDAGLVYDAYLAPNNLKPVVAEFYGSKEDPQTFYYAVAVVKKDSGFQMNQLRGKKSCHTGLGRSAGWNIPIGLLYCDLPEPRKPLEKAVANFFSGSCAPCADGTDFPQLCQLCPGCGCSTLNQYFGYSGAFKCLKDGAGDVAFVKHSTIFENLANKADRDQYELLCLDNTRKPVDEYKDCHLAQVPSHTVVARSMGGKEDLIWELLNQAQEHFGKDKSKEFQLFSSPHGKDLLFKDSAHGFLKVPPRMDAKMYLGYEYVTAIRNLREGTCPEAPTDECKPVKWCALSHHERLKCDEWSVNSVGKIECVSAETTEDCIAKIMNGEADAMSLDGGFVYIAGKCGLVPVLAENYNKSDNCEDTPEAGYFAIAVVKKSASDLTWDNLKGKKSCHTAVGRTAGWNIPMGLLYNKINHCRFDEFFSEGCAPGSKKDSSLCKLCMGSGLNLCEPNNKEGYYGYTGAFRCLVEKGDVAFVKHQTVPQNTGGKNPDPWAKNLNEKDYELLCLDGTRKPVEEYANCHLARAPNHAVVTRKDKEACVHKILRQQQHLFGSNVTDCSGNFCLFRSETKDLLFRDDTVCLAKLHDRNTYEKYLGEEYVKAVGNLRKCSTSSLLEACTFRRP

Binder | percent binding left at 2 M NH4SCN [1] [%] | fold signal over control mAbs 099100 and 043038 [2] [fold] | percent inhibition of PvRBP2b161–1454 binding to reticulocytes [3] [%] | percent binding left at 1 M NH4SCN [1] [%] | percent decrease in FRET signal of PvRBP2b161–1454 with TfR1–Tf [4] [%] | binding result [5]
PvRBP2b human mAb 243244 (antibody, V domains shown, variable region as the Fab heavy chain in PDB 6WNO; cloned into a human IgG1 backbone, full-length antibody; lambda light chain; as the Fab light chain in PDB 6WNO; IgG1; same clonal group as 237235; source: Expi293 HEK cells, transfected, purified (Protein A, gel filtration)) VH: QVQLVESGGGVVQSGKSLRVSCAASGFTFSSYGMHWVRQAPGKGLEWVAFISYDGDNKYSADSVKGRLTISRDNSKNTLYLQMNSLRPEDTAVYYCAKESNYGENAFDIWGQGTMVTVSS VL: QSALTQPRSVSGSPGQSVTISCTGTSSDVGFYNFVSWYQHHPGKAPKLIIYDVSERPSGVPDRFSGSKSGNTASLSISGLQPEDEADYYCCSYAGTYTFVFGSGTKVTVL | > 75 | > 20 | 43 |  |  | 
PvRBP2b human mAb 237235 (antibody, V domains shown, variable region as the Fab heavy chain in PDB 6WM9; cloned into a human IgG1 backbone, full-length antibody; lambda light chain; as the Fab light chain in PDB 6WM9; IgG1; same clonal group as 243244; source: Expi293 HEK cells, transfected, purified (Protein A, gel filtration)) VH: QVQLVESGGGVVQPGRSLRLSCAASGFMFNSYGMHWVRQAPGKGLEWMAFISYDGSDDYYGDSVKGRITISRDNSKNTLFLHINSLRTEDTAVYYCAKESNYGENAFDVWGHGTMVTVSS VL: QSALTQPRSVSGSPGQSVTISCTGTSNDVGFYNFVSWYQHHPGKAPKLMIYDVTERPSGVPDRFSGSKSGNTASLTISGLQAEDEAEYYCCSYAGTYTFVFGHGTKVTVL | > 75 | > 20 | 47 |  |  | 
PvRBP2b human mAb 241242 (antibody, V domains shown, variable region as the Fab heavy chain in PDB 6WN1; cloned into a human IgG1 backbone, full-length antibody; lambda light chain; as the Fab light chain in PDB 6WN1; IgG1; also called 241424 [sic]; source: Expi293 HEK cells, transfected, purified (Protein A, gel filtration)) VH: EVQLLESGGGLVQPGGSLRLSCAVSGFTFRNYALSWVRQAPGKGLDWVSTISASGGATYYADSVKGHFTISRDNSKNILYLDMKSLRAEDTAIYYCARDGGSYTPYFFLDSWGQGALVTVSS VL: SYELTQPASVSVAPGQTAQITCGGNSIGRKSIHWYQHKPGQAPVLVISYDSDRPSGIPERFSGSNSGNTATLTISKVEAGDEADFYCQVRDSDNDHVVFGGGTKLTVL | < 75 | > 20 | > 98 | > 75 | > 70 | 
PvRBP2b human mAb 251249 (antibody, V domains shown, variable region as the Fab heavy chain in PDB 6WOZ; cloned into a human IgG1 backbone, full-length antibody; kappa light chain; as the Fab light chain in PDB 6WOZ; IgG1; source: Expi293 HEK cells, transfected, purified (Protein A, gel filtration)) VH: EVQLVESGGGLVKPGGSLRLSCEASGFLFSSYSMNWVRQAPGKGLEWVSSITGYSSEVFYTDSVKGRFTVSRDNSKNSLYLQMDSLRAEDTAVYYCARALTIFGVVITDYWFFDLWGRGTLVTVSS VL: EIVLTQSPATLSLSPGDRATLSCRASQSVTTFLAWYQQKPGQAPRLLIYDVSNRATGIPARFSGSGSGTDFTLTISSLEPEDFAVYYCQQRSNWGLTFGGGTKVEIK |  | > 20 | 59 | < 75 |  | 
PvRBP2b human mAb 283284 (antibody, V domains shown, variable region as the Fab heavy chain in PDB 6WQO; cloned into a human IgG1 backbone, full-length antibody; kappa light chain; as the Fab light chain in PDB 6WQO; IgG1; source: Expi293 HEK cells, transfected, purified (Protein A, gel filtration)) VH: QVQLQQWGAGLLKPSETLALTCTVYGGSSSGYYWNWIRQSPGKGLEWIGEISDSGSTIYNPSLESRVTMSVDTSKNQFSLKLTSVTAADTAVYYCAKAILTRYNWLDPWSQGTLVTVSS VL: DIVMTQSPSSLSASVGDRISISCRASQGVNSALAWYQQKPGKAPKLLIYDASTLESGVPSRFSGSGSGTDFALTINSLQPEDFATYYCQQFNSYPLTFGGGTKVEIK |  | > 20 |  | < 75 |  | 
P. vivax Reticulocyte Binding Protein 2b, residues 161–1454 (domain or fragment, P. vivax strain Salvador I, UniProt A5K736 161-1454, looked up, DyLight 488 (NHS ester) in the FRET assay; biotin (BirA site) in the competition ELISA between human mAbs, PvRBP2b, P. vivax strain Salvador I, PlasmoDB PVX_094255 (total length 2806 amino acids), residues 161-1454; also called PvRBP2b_(161–1454); PvRBP2b; source: recombinant; expressed and purified in a similar manner as PvRBP2b161–470 (E. coli SHuffle T7; HisTrap, Q-Sepharose, size exclusion) or as previously described) PSPESTQITNTTDNIDYFDISDESNYYLISQLRPHFSNIYFFDEFKRYASYHTEIKRYEDIHKTKVNSLLNEASRAIGICNRAKNTVKGLINILENPQKFKTQRESYDVKLRQYEEKKEAFRGCLLNKNRKNLDQIKKINNEIRDLLEKLKCSQDCQTNVYFDMIKIYLVDFKKMPYENYDTFIKQYKNSYLSGVDMIRKIEKQIDNPVTINAIKFTQKEMGYIIDRFEYHLQKVKHSIDQVTALSDGVKPKQVTKNRLKEYYFNIGNYYSIFKFGKDSLNMLNKALIHKEKIVHNLLGELFGHLEERISKLIDSEYFITESNNIISQSEETLKLAEDVYDKNTKLIEDLTLYPHLEINEFKKDYDNNVEDLRESIIYIQSYVSSIKSAYRYNVLEKDSVESKQKNIPANSNAQKKVDELLSIIDSISYSNFSVAENFQKMKDYYKEIEKLKIKILQLIEAIKKYQQHVEELINKEKAVAILKEDINKIIEYIKGIIEKLKQLISANKDFDKIFQQVEQLINEALFNKDQFEHNKNDLHTKMKEIMHTFHERDLQQFLDNMSKFLKDQEASYQNADSKEKLDQLLTTVKAKQDELKEMKCDDIPDIIDNLKKESQNVLNLKDEVINKQFENMRTEMSSSLDQMTKEYNALKSSIEEYEAEKKGIENHKQNIIKRKNTFIVAEHENDEDVPEGKNTYNEFISNKDTILQKESAISNQMNTLEEKKRNRKTTLQTYGDAIQKLETYTEKKDEETKVLLDKFNTEVENFKLDEDEKSFNDAKSIVSNTINEVENENKNIDSIKKVNIAMKRSRSNQQSVEQLIRNKDNLLKEKMEKHFQKINTDEIIGQSAKANLLNNLESEKAIINEQLNDAHLNDLKLQIEKTLSYCEKSRENIKGNNGTHPEELNASEIEWEATKGKIETLNSNYQALNKNMDDIINKQHDEMIVLIDRDIKEKGKDIELKVEQRIQALEKMKAKLSSFDTNEDVKKYQSDINKEELIKLKEMSTAVLNKIDQNKNQLINVKTKSSGYVAESNGIKNKQTEPSQEKDKQIVYNTNRGDIEKVYKNIRDMYNELDDVEKEETTSNEVDNIEMQYDRLLINLLVQKINEENTKAKGLMEEIKSYIENIESVQAKMSDETREGATEFEFNQYQQSSLANDKKITEIVQHAINKKGEAERSKKTNEVKSIKNDVNTYMQQVIDEYNAMQKALGDIKNVNDLLISTSGRRIAEEISKSTNEAENFEKQAKGELGKINDIIEKMENQMVQAKEHENKIHINLEDKQIDEEVQKIRQIHEE |  |  |  |  |  | binds
PvRBP2b human mAb 253245 (antibody, V domains shown, variable region as the Fab heavy chain in PDB 6WTY; cloned into a human IgG1 backbone, full-length antibody; lambda light chain; as the Fab light chain in PDB 6WTY; IgG1; source: Expi293 HEK cells, transfected, purified (Protein A, gel filtration)) VH: EVQLVQSGAEVKKPGSSMKVSCKASGGTFNRYVFSWVRQAPGQGLEWMGGILPILETTYYAKNFKGRVTITADESTSTVYMELSSLTSEDTAVYFCARDEHDYVWGSYRPSLTGPWGQGTLVTVSS VL: QSALTQPPSTSGSPGQSVTISCTGTGIDVGGFSYVSWFQYHPGKAPKLIIFEVTKRPSGVPDRFSGSKSGNTASLTISGLQADDEAEYYCSSYAVNNNFVFGTGTKVTVL | < 75 | > 20 | > 98 | > 75 | > 70 | 
PvRBP2b human mAb 258259 (antibody, V domains shown, variable region as the Fab heavy chain in PDB 6WTV; cloned into a human IgG1 backbone, full-length antibody; lambda light chain; as the Fab light chain in PDB 6WTV; IgG1; same clonal group as 273264; source: Expi293 HEK cells, transfected, purified (Protein A, gel filtration)) VH: EVQLLESGGGLVRPGGSQRLSCAASGFTFTPYAMTWVRQAPGKGLEWLSTISGSGGSTYYADSVKGRFTISRDNSKNMLYLQMNSLTAEDTALYYCTKDKDEYTFGHNAFDVWGQGTMVTVSS VL: SYELTQAPSVSVAPGQTARITCGGDNIGRKTVNWYQQKPGQAPVLVIYYDNDRPSGIPERFSGSNSGNMATLSISRVEVGDEADYYCQVWDSNNDHPVFGGGTKLTVV |  | > 20 | > 98 | < 75 | > 70 | 
PvRBP2b human mAb 273264 (antibody, V domains shown, variable region as the Fab heavy chain in PDB 6WTU; cloned into a human IgG1 backbone, full-length antibody; lambda light chain; as the Fab light chain in PDB 6WTU; IgG1; same clonal group as 258259; source: Expi293 HEK cells, transfected, purified (Protein A, gel filtration)) VH: EVQLLESGGGLVRPGGSQRLSCAASGFTFTPYAMTWVRQAPGKGLEWLSTISGSGGSTSYADSVKGRFTISRDNSKNILYLQMDSLRAEDTALYYCTKDKDEYTFGHNAFDVWGRGTMVTVSS VL: SYELTQAPSVSVAPGQTARITCGGDNIGRTSVHWYQQKPGQAPVLVIFYDNDRPSGIPERFSGSNSGNMATLSISRVEVGDEADYYCQVWDSNNDHPVFGGGTKLTVV |  | > 20 | > 98 | < 75 | > 70 | 
